These results are taken from a protein production outcome set (Wang et al. 2014).

A short description of the data set: label from the status in PepcDB records.
As to “MNLDETLLNRIKVIALLNLKLVRKLVIFIMVNCLVLSGIPAALCMSSAPVVYVTGDGSGDFNCDGTDDHVQINQALKFVAENSAYTTVYLKGPFTYVIDDTLLIGSNTILEGDSSAKIKLVNNANWESRKPMIKERSTGISGITIRGFTIDGNREGNTNVVSGKGYYNLIHLSSCQNIKVYDMYLTNNHGDGLKTDKCTNVEFYDNEIYLLGHDGLYASGCSDVEAYGNTITCRTNSGLRLYNTNKASFHDNVITSEGSGGAGIEIQKYNTPAMDDIEVYNNVIYKTALAGIWIFGSGSYSASTANVHVHHNQIYDTGTKTSNSIIGGIVSNGFSGLIENNVIDGAYGAGIVQKTVYSPAPSGSGFLLTVRNNILSNSRSSSGGGSGYGINNELSGTHSFVLQNNCYYGSAGGDSRNVQLSASDIKVDPQFADRSSHDYHLKSIAGRWNGKSWITDSASSPCIDAGYIASDYSKEPQDNGGRINIGTYGNTKYASKSGTTEVVTNQAPVLNSIQDATVEIGESLTFTVSASDAEEDSLSYSASGLPTGATFDSESGIFAWTPAVGQEGTYSVTFVVSDGELTDSATAIINVSKQEDTSKQEDPSTITGEVYDNRLREASPDIVYQSSPFIDVGAMSIGSYRDIMWFDLSVYADYSEVNSATLSLYWYYPAGKARPEDTVIEIYRPADSWNPDYVSWNKKDKRVAWNNAGGDWYDRNGVLQGSTPYATITLEGSDLPDNRYYELDVTDLVNEYISSKYENTGFLIKARTENNNYIAFYSNDCGNENQKPKLTVTEEASVSPIDVQPIDVTVSGAKDNRLREASAENVYQSSAYVDVGALSGVGRYRDMMQFDLSEYADYSEVNSATLFLYWYYPAGKARPEDTVIEIYRPADSWNPDYVSWNKKDKRVAWNNAGGDWYDRNGVLQGSTPYATITLEGSDLPDNRYYELDVTDLVNEYISGKYENTGFLIKARTENNNYIAFYSSEAGGENQRPKLNLQLKQ”, the protein production result is on record as “failed”.

Consider “MNLELLTLAVGAYAAVLAFLGWLGYRRTRSAADYLVGGREIHPVLMALAYGSTFISTSAIVGFAGVAALMGMGLLWLTMLNILLGVFVAFVVFGRPTRRLGAALDAHTFPELLGRRYRSRFIQGFAGGTIALLMPLYAAAVLIGGARFLEVQLRLDYHMALFVFAAITVGYVLFGGLKGVVYTDAFQAVLMVCGMLVLLVATYAQVGGLSAHQALTDLADQVPPALRAQGHRGWTAMPAAGSPLWWQMVSTIVLGVGIGVLAQPQLTVRFMTVKSGRELHRALVPGGLFLLLMAGVAYVVGSLTNLWYFQRTGKIALAIMTDPATGKPNVDRLMPLYTQAAMPEWFAYLFMLALLAAAMSTLSAQFHAIGTAIGRDLYEQAFRLGGGAERTVLLARAGILAGFAGTVLLAWNLGPGVIAIATALFFGMCAATFLPAFVSALFWARSTRAGVIAGMLAGFGAWALWVLFVHERESAALGVVKALTGRTSLGAGTTWALVDPIVVALPIAALVTVVGSLAGRAAPGAETGGPARTREGGLDAGLR”, for which the protein production entry is recorded as “failed”.

For the sequence “MNLETKPIAETPNFIVLDQYEKIEQSGSYQSENRLEAELIADLQNQGYEYRKDLNSQSRLLENLRAQLQRLNDVAFSDGEWARFLTEYLDRPAENITDKTRKIHDDHIYDFAFDDGRLKNIYLLDKKNLARNHVQLINQFEQTGTHANRYDVTVLVNGLPLVQIELKKRGVAVREAFNQVHRYSKESFNSGNSLFKFLQIFVISNGTDTRYFANTTKRDKNSFDFTMNWARSDNHPIKDLKDFTATFLQKSVLLSVLLHYSVFDANDTLLIMRPYQIAAAERILWKINSSAQAKNWSGPESGGYVWHTTGSGKTLTGFKAARLATESAFIDKVFFVVDRKDLDYQTMKEYQRFSPDSVNGSESTAGLKRNLEKDGNKIIVTTIQKLNNLMKSEDNLPVYHRQVVFIFDECHRSQFGEAQKNLKKKFKKFCQFGFTGTPIFPENALGAETTAGVFGRELHSYVITDAIRDEKVLKFKVDYNDVRPQFKAVEAEQDEKELSAAENRQALLHPERIREITQYILSRFRQKTHRLNAGGKGFNAMFAVSSVDAAKCYYEAFKTQQAGSLHPLKTATIFSFAANEEQNAVGEIVDETFEPEAMDSSAKEFLQAAINDYNACFKTNFGTDSKAFQNYYRDLAKRVKNREVDLLIVVGMFLTGFDAPTLNTLFVDKNLRYHGLMQAFSRTNRIYDATKTFGNIVCFRDLEQATIDAITLFGDKNTKNVVLEKSYEEYMNGYTDSQTGEARRGYLDVAKELHERFPDPDKIETEKDKKDFAKLFGEYLRAENVLQNYDEFAALRELQNVDAADEDAMKAFQEKYYLSDEDVQEMRKVPMPSERAVQDYRSAYNDIRDWLRRQKAGEQKEQSKIDWDDVVFEVDLLKSQEINLDYILQLVFEHHKKIKGKAELVEEIRRIIRASIGHRAKEGLIVDFINDTDLDKVPDVPAILETFYTYAQEVMRHEAAGLIAAEGLNETAAKRYLTGSLKRGYASENGTELTETLPKMSPLNPQYLTKKQSVFQKIAAFVEKFAGIGADI”, the protein production result is listed as “failed”.

“MNLHTKTWVQRLPVPIDVAWDFFSQPGNLARITPPEMMLKAEGGNAGTAIYEGMKLNFVLYPFMMIPVRWTTEIMKVSKPDFFEDRQLSGPYEQWYHRHLFRDIEGGTEMTDIVEYALPFDLFGEVVEALIVGPRLDEVFEYRRCRVAEILGLEHHHHHH”: the protein production result is given as “failed”.

Take “MNLIWFLIIGGLAGWLAGLIMKGKGFGVLANIGIGIVGSFIGGFLFGLLQLSAHGAIGRLVTATVGAVLLLAIVNKIKKG”: the protein production entry was “failed”.

As for “MNLNDYKGILVFAEQRDGILQNVGLELLGKATELAYEINKQIALKDAGDELADFAGKKEAAIKSVDVAAATLEEDDQELKNKVADIKKNNPDAAKVTALLVGHNIKNLAQDLIKAGADKVLVVDKPELEVYDTEAYAQVLTATINDQKPEIVLFGATTLGRDLAPRVSSRIATGLTADCTKLELLKDKERQLGMTRPAFGGNLMATIVSPDHRPQMATVRPGVMKKLPKSDDRTGEVVEFPVTLDTSKMKVKLLKVVKEGGNKVDISEAKILVSGGRGVGSKQNFELLEDLATEIGGIVSSSRAQVDAGNMPHDRQVGQTGKTVRPEVYFACGISGAIQHVAGMEESEFIIAINKDRFAPIFSVADLGIVGDLHKILPILTEEIKKYKATK”, the protein production result is listed as “failed”.

“MNLNIRIKNYWEGEAQGYSEAIEDELNGFERKAWSDLVLEYAPSKDRLDILDIGTGPGFFPIVLSQGGHNVTGIDLTENMIEFARLNLAREGASAKLVTMDCQNLKFPDNCFDLLVCRNLTWTLDDPAKAYKEWHRVLKPGGRVLIFDACWYLHLFDENMKIAYEKKEKEILMKYGHPMHQHKDQVEGDALSRKLFMSDKVRPQWDLDIMLKLGFSKVFADTSVGERILNEQQQDRNSMHPPFLVGGEK”: the protein production entry is reported as “failed”.

Take “MNLPCQWPRSQQADKHGRFPINRDQRRAAGAGTRSGAGGQPPLGLDQYVQQALQLHQAGRRQEAESIYRQVLARQPKHAAAAHFLGLLLHQTGRSEEGLDLIERSVSLQPTNADFLNNFGTVMRDLGRVAAAIDFFRGAVDLRPEQLAARDNLGSSLKQLGRFEEAEDIYRGTVARNPFHVRARIGLAETLQEAGRLDEALAVFRESLTIRPKDADLLHGLGVGMMEKGKLDEAADLFRQALAVNPGMATAWLMLTQVKRQKERDAELAGMEAQHAKAPQDSLARMQLSFGLGKANDDLKDYNRAFDYFAEGNAIRRKGIDYDPVRTREEFAAMKTVFDAGFFERHRPSPISDDAPIFVVGMPRSGTTLVEQIIASHPQVYGAGELSILKKAVGKQFPTTMPGGFPWGVADTDDADFAEAGQAYLDMLHARYPHLSHVTDKMPGNFLLVGFIHMMMPKAKIIHCTRDAAATCLSIYKVHFRGDSHRYGYDLGELADFHNLYTDIMAHWHKVLPGVVHDVRYEDFVADQEGQSRALIDYLGLPWDDAVLSFHATDRPVRTASAAQVRQPMYQGSVDLWKRYGDRLKPLLDKLD”: the protein production entry was “failed”.

With “MNLPILPTISTSFIVISAILIAIGWRQIWKRKIESHKKVMLAAAFFALAFFIIYASRTIFIGNTAFGGPDSIKIYYTIFLIFHINLATIGGILGLVQIITAFKDKFKVHRFVGPIASIVWFCTAITGVAVYLLLYVLYPGGETTSLLKATFGL”, the protein production result is listed as “failed”.

As to “MNLRLTASILGKLLMLFSFSFILPLIAAHVFEEPYHPFLIPAALSLLVGAVLGYGIKTESEFDSLRHKESFAIVALIWLFMSIFGSIPYIIFGISPVDAFFESMSGFTTTGASVLTPEELPKSLLLWRSLTQWIGGMGIIVLFLAIFPNVAKRSTVLFQAEYPGVSLSKLKPRIRDTALSLYKVYLLLTIAEVALLYALGLSLFDAINHTFTTLSTGGYSTHSESIAFFKDVRVEAVVAFFAFLGGANFALIYFLLSGKPVIFRNTEFRAYVCFLALASVVIAAVNLDRYSIFESLRYSIFQAVSIMTTTGFTTADFDAWSDSAKLILVVLMFIGGSSGSTGGGIKVIRIYLLIKYAVHQILRAAEPRTVRAVKFEGRAIKKEILDDIAAFFVLYILIFAVSSILVSLSGYDIVTSISATAATLGNVGPGLGLAGAAENYASFPSLTKILLAVNMWIGRLEIFTVVSLFIPTFWRERW”, the protein production entry is on record as “failed”.

As to “MNLTKRITAWFLTLVMVLGLIPQTMFAQEIATSPLQYEATQEMNEDKTEATISIKFTETETIQLEKVTLSDGTEKVEDLSEVTYTVSENGKYDFKVNYVMEGTPQEETISVEVSGLEEKIKELVTNQNIELDVDIQLKGATYFDGHPNPFFGGTKQYMISDRSIIPYNGMQLMELIVEIPYQEGLEIQGITPSAASQYPDLSKVEKDDKNKKWTYSFYFYKNGTYEFTIDYILNGENKITSTSFTVDGLVSIKDIAMRRHLINEYGEFSGFRYQDGQYVTQDILAKEPSVGFFTFGLDGDNGTTAEYTTSLDGLQYLKNATGLYLYDCKKLAEGETIEPVTEGYYPNMKLFRVSNLNERPNMPKSAYNAELVTKSIANMPALTELVINGTGFSDCTVFRKITAGSLDYLQAMANNIVSLDGIESQQNLSSINIGQNKIKSIDPLSKLNQINFLNLMRNEVFDLRPINESLNQKAVAGNTVYGFAAREQNITYDRTVITPLQNGMYTVELPMPIDIDGSLTNTSSVSLKFANGTTKTYSTSQSEGKTYISIPEGDVDSSQENPFEGAEFKFSFNNNNGADPRTKAWFTGTVTFKASPIATNYHVIYDFISGTRGKSLPPEITNLLPIDSTKYYEGDTITAKNPTQLELEVSDGVWTFEGYDADSKTANANSANEDGNIQFTGTWIFETKKYDVSYKFESINTDKEVPKEILDMLPTVGSVEHGKTVNAPETEYKDVKVTDGVWSFKGWTPVKYENVTGNVEFVGKWEFKKNASIINHIPTISASDKTLTVGDTFDPLKDVTARDKEDGDLTKEIEILKNEVNTSKARVYEVTYKVTDSKGASSIKTIYVTVNPKMEELNRIPTISASDKTLTVGDTFDPLKDVTATDKEDGDLTKEIEILKNEVNTSEAGVYEVTYKVTDSKGASSIKTIYVTVNPKMEELNRIPTISASDKTLTVGDTFDSLKDVTATDKEDGDLTKEIEILKNEVNTSKAGVYEVTYKVTDSKGASSIKTIKVTVIEKNIPIIPNEPDKPSKPDTNKPEDNGSVGTGDKTNGVFWTMLSIICGISVIGVYRKKREINQ”, the protein production entry was “failed”.

For “MNMDFNLFMNDIVRQARQEITAAGYTELKTAEEVDEALTKKGTTLVMVNSVCGCAGGIARPAAYHSVHYDKRPDQLVTVFAGQDKEATARARDYFEGYPPSSPSFAILKDGKIMKMVERHEIEGHEPMAVVAKLQEAFEEYCEEV”, the protein production result is listed as “not failed”.

On to “MNMDISKAAIVTGGSRGIGRAIAARLAADGFAVVVNYAGNGAKAHETVAAIESAGGKAIAIQGDVGKPQDVANLFAQARAAFGRIDVVVNSAGVMPMASIDVANLDAFDQVIATNLRGAFLVLAQAAANLGDDGRIIALSTSVIAKSLPGYGPYIASKAGVEGLVHVLANELRGRNITVNAIAPGPVGTDLFFNGKSEEAVASIARQAPMERIGMPDEIAAAVSFLAGPDGRWVNAQVLRVNGGFA”, for which the protein production result is “failed”.

In the case of “MNMGKKIQEMAVWLEFLVGSGLAIFFHLVLHYEQAAYVIFGIGILLALGTYLIREEIEKNRSHLVEQYQQAHEIPFAMAGIADPECLAKAHELIAGTRRTITILQQGYIPLDENEFYLEGAKLSDQAVREIRAVDPLMAGWWTRGALVNFYQANLRALDRGVRIRRIFVVNREELGEPEVQKVLLSHYRDDIDIRIVYRDELPAAGEIIGRDTNSSFDFALYDDRVATDVFAHPGKYYGRKTAQPMEVAKYRHLYELIEHSAHTVSEDGDRIVPSAEVMPLAS”, the protein production entry was “failed”.
